Where two headings read alike, the source gives them in different places.
Assays:
Assay in all cases: FRET or BRET
[1] = molecular target: S. oneidensis RNA polymerase core (α, β, β′, ω), assembled in vivo (Shewanella oneidensis MR-1) (UniProt Q8EK47)
[2] = molecular target: S. oneidensis RNA polymerase core (α, β, β′, ω), assembled in vivo (Shewanella oneidensis MR-1) (UniProt Q8EK47); remark: listed apart in the source
[3] = molecular target: S. oneidensis RNA polymerase core (α, β, β′, ω), assembled in vivo (Shewanella oneidensis MR-1) (UniProt Q8EK47); remark: listed apart in the source

Cy3B-labelled single-cysteine S. oneidensis σ^70 derivative N399C (from UniProt Q8EHE1 1-616) (natural protein)
σ^70 retention half-life [1]: 1.33 h
initial σ^70 retention (%) [2]: 45%
σ^70 retention half-life [2]: 0.717 h
initial σ^70 retention (%) [3]: 59%
σ^70 retention half-life [3]: 1.25 h

From PMC3084661
